Key:
[1] = target: monkey GPC3 on HEK293T-monkey GPC3 cells (monkey); test: FACS on HEK293T-monkey GPC3 cells
[2] = target: monkey GPC3-His protein (monkey); test: ELISA, monkey GPC3-His coated; antibody 0.02 nM
[3] = target: monkey GPC3-His protein (monkey); test: ELISA, monkey GPC3-His coated; antibody 0.0008 nM
[4] = target: monkey GPC3-His protein (monkey); test: ELISA, monkey GPC3-His coated; antibody 0.11 nM
[5] = target: monkey GPC3-His protein (monkey); test: ELISA, monkey GPC3-His coated; antibody 13.33 nM
[6] = target: monkey GPC3-His protein (monkey); test: ELISA, monkey GPC3-His coated; antibody 2.67 nM
[7] = target: monkey GPC3-His protein (monkey); test: ELISA, monkey GPC3-His coated; antibody 66.66 nM
[8] = target: monkey GPC3-His protein (monkey); test: ELISA, monkey GPC3-His coated; antibody 0.004 nM
[9] = target: monkey GPC3-His protein (monkey); test: ELISA, monkey GPC3-His coated; antibody 0.53 nM

| Binder | EC50 [1] | Max MFI [1] | OD450 nm [2] | OD450 nm [3] | OD450 nm [4] | OD450 nm [5] | OD450 nm [6] | OD450 nm [7] | OD450 nm [8] | OD450 nm [9] |
| --- | --- | --- | --- | --- | --- | --- | --- | --- | --- | --- |
| GC33 IgG (antibody, V domains shown) VH: QVQLVQSGAEVKKPGASVKVSCKASGYTFTDYEMHWVRQAPGQGLEWMGALDPKTGDTAYSQKFKGRVTLTADKSTSTAYMELSSLTSEDTAVYYCTRFYSYTYWGQGTLVTVSS VL: DVVMTQSPLSLPVTPGEPASISCRSSQSLVHSNRNTYLHWYLQKPGQSPQLLIYKVSNRFSGVPDRFSGSGSGTDFTLKISRVEAEDVGVYYCSQNTHVPPTFGQGTKLEIKR | 5.96 nM | 87000 MFI | – | – | – | – | – | – | – | – |
| hAb005LH2L1b (antibody, human IgG1, V domains shown) VH: EVQLVQSGAEVKKPGASVKVSCKASGYTFTDYEMHWVRQAPGQGLEWMGAIDPETGNTAYIQKFKGRVTLTTDKSTSTAYMELRSLRSDDTAVYYCTRFYSYSHWGQGTTVTVSS VL: DIVMTQTPLSLPVTPGEPASISCRSSQSLVHSNRNTYLHWYLQKPGQSPQLLIYKVSNRFSGVPDRFSGSGSGTDFTLKISRVEAEDVGVYYCSQNTHVPPTFGGGTKVEIK | – | – | 0.687 | 0.09 | 1.17 | 1.24 | 1.32 | 1.23 | 0.232 | 1.25 |
| hAb003LH1L1 (antibody, human IgG1, V domains shown) VH: EVQLVQSGAEVKKPGSSVKVSCKASGYTFSDYEMHWVRQAPGQGLEWMGTIDPETGNTAYTQKFMDRVTITADKSTSTAYMELSSLRSEDTAVYYCTRGYSFTYWGQGTLVTVSS VL: DIVMTQTPLSLPVTPGEPASISCRSSQNIVHSNGNTYLQWYLQKPGQSPQLLIFKVSNRFSGVPDRFSGSGSGTDFTLKISRVEAEDVGVYYCFQGSHVPFTFGQGTKLEIK | – | – | 1.34 | 0.188 | 2.31 | 2.62 | 2.58 | 2.58 | 0.467 | 2.65 |
| hAb006LH1L1a (antibody, human IgG1, V domains shown) VH: EVQLVQSGAEVKKPGSSVKVSCKASGYTFSDYEIHWVRQAPGQGLEWMGAIDPKTGNTAYNQKFMGRVTITADKSTSTAYMELSSLRSEDTAVYYCTRYFSFAYWGQGTLVTVSS VL: DIVMTQTPLSLPVTPGEPASISCRSSQTFVHSDGNTYLQWYLQKPGQSPQLLIYKVSNRFSGVPDRFSGSGSGTDFTLKISRVEAEDVGVYYCFQGSHVPYTFGQGTKLEIK | – | – | 0.078 | 0.05 | 0.227 | 1.82 | 1.63 | 2.08 | 0.058 | 0.917 |
| hAb001H2L1a (antibody, human IgG1, V domains shown) VH: EVQLVESGGGLVQPGGSLRLSCAASGFSFNTNAMNWVRQAPGKGLEWVGRIRSKSNNYATYYADSVKDRFTISRDDSKSSLYLQMNSLKTEDTAVYYCVRDGYYVLFAYWGQGTLVTVSS VL: DIVMTQTPLSLPVTPGEPASISCRFSQSIVNSDGNTYLEWFLQKPGQSPQLLIYKVSNRFSGVPDRFSGSGSGTDFTLKISRVEAEDVGVYYCFQGSHVPFTFGQGTKLEIK | 2.03 nM | 26900 MFI | – | – | – | – | – | – | – | – |
| hAb001H2L1 (antibody, human IgG1, V domains shown) VH: EVQLVESGGGLVQPGGSLRLSCAASGFSFNTNAMNWVRQAPGKGLEWVGRIRSKSNNYATYYADSVKDRFTISRDDSKSSLYLQMNSLKTEDTAVYYCVRDGYYVLFAYWGQGTLVTVSS VL: DIVMTQTPLSLPVTPGEPASISCRFSQSIVNSNGNTYLEWFLQKPGQSPQLLIYKVSNRFSGVPDRFSGSGSGTDFTLKISRVEAEDVGVYYCFQGSHVPFTFGQGTKLEIK | 1.08 nM | 33300 MFI | – | – | – | – | – | – | – | – |
| hAb003LH1L1b (antibody, human IgG1, V domains shown) VH: EVQLVQSGAEVKKPGSSVKVSCKASGYTFSDYEMHWVRQAPGQGLEWMGTIDPETGNTAYTQKFMDRVTITADKSTSTAYMELSSLRSEDTAVYYCTRGYSFTYWGQGTLVTVSS VL: DIVMTQTPLSLPVTPGEPASISCRSSQNIVHSNRNTYLQWYLQKPGQSPQLLIFKVSNRFSGVPDRFSGSGSGTDFTLKISRVEAEDVGVYYCFQGSHVPFTFGQGTKLEIK | – | – | 1.22 | 0.192 | 2.18 | 2.64 | 2.58 | 2.55 | 0.418 | 2.46 |
| hAb001H1L1a (antibody, human IgG1, V domains shown) VH: EVQLVESGGGLVQPGGSLRLSCAASGFSFNTNAMNWVRQAPGKGLEWVGRIRSKSNNYATYYADSVKDRFTISRDDSKNSLYLQMNSLKTEDTAVYYCVRDGYYVLFAYWGQGTLVTVSS VL: DIVMTQTPLSLPVTPGEPASISCRFSQSIVNSDGNTYLEWFLQKPGQSPQLLIYKVSNRFSGVPDRFSGSGSGTDFTLKISRVEAEDVGVYYCFQGSHVPFTFGQGTKLEIK | 1.87 nM | 24900 MFI | – | – | – | – | – | – | – | – |
| hAb001H1aL1a (antibody, human IgG1, V domains shown) VH: EVQLVESGGGLVQPGGSLRLSCAASGFSFNTNAMNWVRQAPGKGLEWVGRIRSKSNNYATYYADSVKGRFTISRDDSKNSLYLQMNSLKTEDTAVYYCVRDGYYVLFAYWGQGTLVTVSS VL: DIVMTQTPLSLPVTPGEPASISCRFSQSIVNSDGNTYLEWFLQKPGQSPQLLIYKVSNRFSGVPDRFSGSGSGTDFTLKISRVEAEDVGVYYCFQGSHVPFTFGQGTKLEIK | 1.68 nM | 27200 MFI | – | – | – | – | – | – | – | – |
| hAb001H1L1 (antibody, human IgG1, V domains shown) VH: EVQLVESGGGLVQPGGSLRLSCAASGFSFNTNAMNWVRQAPGKGLEWVGRIRSKSNNYATYYADSVKDRFTISRDDSKNSLYLQMNSLKTEDTAVYYCVRDGYYVLFAYWGQGTLVTVSS VL: DIVMTQTPLSLPVTPGEPASISCRFSQSIVNSNGNTYLEWFLQKPGQSPQLLIYKVSNRFSGVPDRFSGSGSGTDFTLKISRVEAEDVGVYYCFQGSHVPFTFGQGTKLEIK | 1.33 nM | 33500 MFI | – | – | – | – | – | – | – | – |

The remaining lines, values ahead:

| EC50 [1] | Max MFI [1] | OD450 nm [2] | OD450 nm [3] | OD450 nm [4] | OD450 nm [5] | OD450 nm [6] | OD450 nm [7] | OD450 nm [8] | OD450 nm [9] | Binder |
| --- | --- | --- | --- | --- | --- | --- | --- | --- | --- | --- |
| 19.9 nM | 59700 MFI | – | – | – | – | – | – | – | – | hAb007LH1L1e (antibody, human IgG1, V domains shown) VH: EVQLVQSGAEVKKPGSSVKVSCKASGYTFSDYEMHWVRQAPGQGLEWMGTIDPETGNTAYNQKFKGRVTITADKSTSTAYMELSSLRSEDTAVYYCTRPYSLTYWGQGTLVTVSS VL: DIVMTQTPLSLPVTPGEPASISCRSSQSFVHSNVDTYLQWYLQKPGQSPQLLIYKVSNRFSGVPDRFSGSGSGTDFTLKISRVEAEDVGVYYCFQGSHVPYTFGQGTKLEIK |
| 13.6 nM | 80400 MFI | – | – | – | – | – | – | – | – | hAb007LH1L1d (antibody, human IgG1, V domains shown) VH: EVQLVQSGAEVKKPGSSVKVSCKASGYTFSDYEMHWVRQAPGQGLEWMGTIDPETGNTAYNQKFKGRVTITADKSTSTAYMELSSLRSEDTAVYYCTRPYSLTYWGQGTLVTVSS VL: DIVMTQTPLSLPVTPGEPASISCRSSQSFVHSNSDTYLQWYLQKPGQSPQLLIYKVSNRFSGVPDRFSGSGSGTDFTLKISRVEAEDVGVYYCFQGSHVPYTFGQGTKLEIK |
| – | – | 0.065 | 0.047 | 0.137 | 1.84 | 1.39 | 2.06 | 0.055 | 0.549 | hAb006LH2L1a (antibody, human IgG1, V domains shown) VH: EVQLVQSGAEVKKPGSSVKVSCKASGYTFTDYEIHWVRQAPGQGLEWMGAIDPKTGNTAYNQKFMGRVTITADKSTSTAYMELSSLRSEDTAVYYCTRYFSFAYWGQGTLVTVSS VL: DIVMTQTPLSLPVTPGEPASISCRSSQTFVHSDGNTYLQWYLQKPGQSPQLLIYKVSNRFSGVPDRFSGSGSGTDFTLKISRVEAEDVGVYYCFQGSHVPYTFGQGTKLEIK |
| – | – | 1.06 | 0.129 | 2.01 | 2.23 | 2.46 | 2.39 | 0.358 | 2.38 | hAb006LH2L1 (antibody, human IgG1, V domains shown) VH: EVQLVQSGAEVKKPGSSVKVSCKASGYTFTDYEIHWVRQAPGQGLEWMGAIDPKTGNTAYNQKFMGRVTITADKSTSTAYMELSSLRSEDTAVYYCTRYFSFAYWGQGTLVTVSS VL: DIVMTQTPLSLPVTPGEPASISCRSSQTFVHSNGNTYLQWYLQKPGQSPQLLIYKVSNRFSGVPDRFSGSGSGTDFTLKISRVEAEDVGVYYCFQGSHVPYTFGQGTKLEIK |
| 6.54 nM | 82900 MFI | – | – | – | – | – | – | – | – | hAb006LH3L1e (antibody, human IgG1, V domains shown) VH: EVQLVQSGAEVKKPGSSVKVSCKASGYTFTDYEIHWVRQAPGQGLEWMGAIDPKTGNTAYNQKFMGRVTLTADKSTSTAYMELSSLRSEDTAVYYCTRYFSFAYWGQGTLVTVSS VL: DIVMTQTPLSLPVTPGEPASISCRSSQTFVHSNVNTYLQWYLQKPGQSPQLLIYKVSNRFSGVPDRFSGSGSGTDFTLKISRVEAEDVGVYYCFQGSHVPYTFGQGTKLEIK |
| 6.16 nM | 84800 MFI | – | – | – | – | – | – | – | – | hAb006LH3L1d (antibody, human IgG1, V domains shown) VH: EVQLVQSGAEVKKPGSSVKVSCKASGYTFTDYEIHWVRQAPGQGLEWMGAIDPKTGNTAYNQKFMGRVTLTADKSTSTAYMELSSLRSEDTAVYYCTRYFSFAYWGQGTLVTVSS VL: DIVMTQTPLSLPVTPGEPASISCRSSQTFVHSNSNTYLQWYLQKPGQSPQLLIYKVSNRFSGVPDRFSGSGSGTDFTLKISRVEAEDVGVYYCFQGSHVPYTFGQGTKLEIK |
| – | – | 0.877 | 0.111 | 2.13 | 2.5 | 2.75 | 2.77 | 0.309 | 2.49 | hAb006LH1L1b (antibody, human IgG1, V domains shown) VH: EVQLVQSGAEVKKPGSSVKVSCKASGYTFSDYEIHWVRQAPGQGLEWMGAIDPKTGNTAYNQKFMGRVTITADKSTSTAYMELSSLRSEDTAVYYCTRYFSFAYWGQGTLVTVSS VL: DIVMTQTPLSLPVTPGEPASISCRSSQTFVHSNANTYLQWYLQKPGQSPQLLIYKVSNRFSGVPDRFSGSGSGTDFTLKISRVEAEDVGVYYCFQGSHVPYTFGQGTKLEIK |
